The DeepSol protein solubility set

Assay: soluble on expression in E. coli; label from the status in PepcDB or PDB records

Sequence | soluble on expression in E. coli
MHQAPATSTDENPPIESDVPMHHVYPSHHHHQHYQLPHLQQHPHPYSYPLYTFPYPIAPAFHQAQNPPMTSSVASGANGEHHHQPQQFFAPQYQVIPAGAIPVSTINIDPSQICPVDQMGMWTLPPPTGPNGMRYGIPIPAPLVPQITSSIMEASKMTSSTHTNATILNAMTASTSSNDSSSESGVSGVKEAKDEKKKSKIQADEKLRHEERQSTSDYTDDDPIPFTSRRSITGSVSYNYAEQIAERRRVEQQQEDRERQEMLEVERQRRVLEDRRNSEEEIRKQAELDRVEKDRLRMEQAAAAMEKARKEAELAKRARIYKHVFRGAEEEGGTEQLEELEQKILGVDIETGRRLLKEVSEVEWHKKQDEAEIRKNAPPQSDRSAHNLSSLSSGNQSARGRSSSISSPCKPDTSFTRNSIGRRSVRTTSREKQQESPKSSDQAVQHPLAASTPVRRPPRQPQALPTQDEIHVAREVPLANKSTTPSPTRSEMLRSAAIYCPINRDPLSQREELRAINRSTSNTGAYHNNNNNNNSKFEGAGVSRYNEITQTALFGPIATRNSIRRGTMRGTGLPSPPSVRVSTQNHQNQQRTSSFDESSSGGEEGGSISPDLGHKNFESPLPSSTENVHPASNSPPMKQIEGFEFKTPTRARSALSSPMSNFMNGGDNDSPISRPASRLMQRLEQKGTIRRDDEIISQEIRRVAETNLSRSPSLASLRGSMSNLAFRASQLNLAGTSGELPPNLTKFASVNSPARQSLSSMKKTTDRQAAVLERLGRLRESLHAGKNYTPPRNGISSSSRITTPAQTPPISPRPVM | not soluble
MRKQLPVICVAAGIVLLAACTNDGGQQQTTVAPQPAVCNGPTVEISGAEPRYEPLNPTANQDYQRDGKSYKIVQDPSRFSQAGLAAIYDAEPGSNLTASGEMFDPMQLTAAHPTLPIPSYARITNLANGRMIVVRINDRGPYGTDRVISLSRAAADRLNTSNNTKVRIDPIIVAPDGSLSGPGMACTTVAKQTYALPPRPDLSGGMGSASSAPAQPQGDVLPVSNSTLKSDDTTGAPVSSSGFLGAPTTLAPGVLESNEPTPAPQPAPVSAPVAAPATAPATATPVSAPAAAAPVSAPVSAPAAAASGRFVVQVGAVSDQTRAQQYQQRLSQQFSVPGRVIQNGAVWRIQLGPFASKAEASALQQRLQTEAQLQSFIASAQ | not soluble
MGSDKIHHHHHHMTHPQDQHPPQDARTLPTRDHDASEALLERVRQAAATGTALRLVGGGSKGFYGRPVVGETLSLAEHTGIVNYDPVELVVTVRAGTRLADLQAVLAQEGQQLAFEPPHFGENATVGGTVACGLSGPRRPWAGSVRDFVLGTRMITHDGKRLHFGGEVMKNVAGYDLSRLMVGAQGTLGIIDEVSFKVLPRPAASATLRLEMGLGDAMARLAEWGRKPMPITGAAHDGETLHLRLEGGASSVANTQAQLGGELDDTAFWTQLRELELAFFSRRHDDRPLWRLSLPHRAPPLALDGDTLVDWAGAQRWLRSELPAATIRQHAAQAGGHATLVDRDRAHGVDAPFTPLSVVMDKYHRQLKAKLDPKGIFNPGRLYEGL | not soluble
MGSDKIHHHHHHMSRLSTAPWGPVLKSVPTAAHWSLRPWCLSISLSANSEAMNKMQTEKLITPFAHALQHEHGVWGLIDQMKAVTHFLDEELERDRIRNLGIADASFLRKFGAKGTYAAQWLEAQGVVIPTRPNSWAQAADGSLALRLGNSEFLIEDVPGGTSCDRLAQACAGARGVYPVPHVEASFVISGHAVQALFSEVCSIDLTHASLGAQDVVMTQFAGVSVVLIRQDLKEEESLYRLWCDSSYGSYLWEVIAGIAHEHKGGPVGIGRYFASCP | not soluble
MGSDKIHHHHHHMNELVSIITPCYNSAATIRETIRSVIAQSYVNWELLIIDDCSNDDSVKIIMEFMDTDSRIYYLKTEHPSGGPTLPRNVGIQAAKGRFIAFLDSDDIWLPNKLSTQLPLFINDNVAIVYSDYEKISEEGNRTGRIVKSDPYHHYKSLLCGNELGCLTVVYDTQKIGKRYFKFIGHEDYNLWLDILKEGFIAINTNICLALYRIRKGSVSSNKLRVIKWIWHIYRVEQKKTIWLSLYYSLSDLNKSLFKYLK | not soluble
MQKKRFSKKYEVHYYEINSMQEATLLSLLNYMEDCAISHSTSAGYGVNELLAADAGWVLYRWLIKIDRLPKLGETITVQTWASSFERFYGNREFIVLDGRDNPIVKASSVWIYFNIKKRKPMRIPLEMGDAYGIDETRALEEPFTDFDFDFEPKVIEEFTVKRSDIDTNSHVNNKKYVDWIMETVPQQIYDNYKVTSLQIIYKKESSLGSGIKAGCVIDEQNTDNPRLLHKIWDKNTGLELVSAETIWQKIQS | soluble
MGSDKIHHHHHHMIDSHAHLISADVERYPTSPLSGELEPGALDNPVTAERLLALMDEQGIERALAVQRAHIYGFNNAYVCDAAQRYPERLRALGMVDALDQNIREQVRHWVGERGAVGIRLTEPFKGADPSWFASPEAMAAWETVSELGGSVRLHFYRWNREAALKALKPVLQRFPQTTVVLDHFSNIVGESGAPDHGVDATLLEMVEHSNVYLLYSMINLGKLAAAQMAAAPMVERVVREFGADRVMWGSDVAQSKGSYAQMVALAKESVSLLSETDQRKVLHDTAHAVYWGTR | not soluble
MIIHFTLNGAPQELTVNPGENVQKLLFNMGMHSVRNSDDGFGFAGSDAIIFNGNIVNASLLIAAQLEKADIRTAESLGKWNELSLVQQAMVDVGVVQSGYNDPAAALIITDLLDRIAAPTREEIDDALSGLFSRDAGWQQYYQVIELAVARKNNPQATIDIAPTFRDDLEVIGKHYPKTDAAKMVQAKPCYVEDRVTADACVIKMLRSPHAHALITHLDVSKAEALPGVVHVITHLNCPDIYYTPGGQSAPEPSPLDRRMFGKKMRHVGDRVAAVVAESEEIALEALKLIDVEYEVLKPVMSIDEAMAEDAPVVHDEPVVYVAGAPDTLEDDNSHAAQRGEHMIINFPIGSRPRKNIAASIHGHIGDMDKGFADADVIIERTYNSTQAQQCPTETHICFTRMDGDRLVIHASTQVPWHLRRQVARLVGMKQHKVHVIKERVGGGFGSKQDILLEEVCAWATCVTGRPVLFRYTREEEFIANTSRHVAKVTVKLGAKKDGRLTAVKMDFRANTGPYGNHSLTVPCNGPALSLPLYPCDNVDFQVTTYYSNICPNGAYQGYGAPKGNFAITMALAELAEQLQIDQLEIIERNRVHEGQELKILGAIGEGKAPTSVPSAASCALEEILRQGREMIQWSSPKPQNGDWHIGRGVAIIMQKSGIPDIDQANCMIKLESDGTFIVHSGGADIGTGLDTVVTKLAAEVLHCPPQDVHVISGDTDHALFDKGAYASSGTCFSGNAARLAAENLREKILFHGAQMLGEPVADVQLATPGVVRGKKGEVSFGDIAHKGETGTGFGSLVGTGSYITPDFAFPYGANFAEVAVNTRTGEIRLDKFYALLDCGTPVNPELALGQIYGATLRAIGHSMSEEIIYDAEGHPLTRDLRSYGAPKIGDIPRDFRAVLVPSDDKVGPFGAKSISEIGVNGAAPAIATAIHDACGIWLREWHFTPEKILTALEKI | soluble
MASYSQFLTKAQEDELRSIANAIVTPGKGILAADESTGSMDKRLNSIGLENTEENRRKYRQLLFTAGADLNKYISGVIMFHETFYQKTDDGKPFTALLQEQGIIPGIKVDKGVVPMAGTIGEGTTQGLDDLNARCAQYKKDGAQFAKWRCVHKISSTTPSVTALKEIASNLARYASICQQNGLVPIVEPEILPDGEHCLARGQKITETVLSYVYHALNEHHVFLEGTLLKPNMVTSGQSFTGEKPSNADIGLATVTALQRGVPSAVPGVVFLSGGQSEEDATLNLNAINQVSGKKPWALTFSYGRALQASCLAKWAGKDENIAAAQEVLLHRAQVNSLASVGKYTGDASADAAASQSLFVANHSY | soluble
AEGKLNDELAKNKGKIPGLKIDQKIRGQMPERGWTEDDIKNTVSNGATGTSFDKRSPKKTPPDYLGRNDPATVYGSPGKYVVVNDRTGEVTQISDKTDPGWVDDSRIQWGNKNDQ | soluble
SNAMEVMLMSKYATLKYADKNIEIELPVYSPSLGNDCIDVSSLVKHGIFTYDPGFMSTAACESKITYIDGGKGVLLHRGYPIEEWTQKSNYRTLCYALIYGELPTDEQVKSFRQEIINKMPVCEHVKAAIAAMPQHTHPMSSLIAGVNVLAAEHIHNGQKESQDEVAKNIVAKIATIAAMAYRHNHGKKFLEPKMEYGYAENFLYMMFADDESYKPDELHIKAMDTIFMLHADHEQNASTSTVRLSGSTGNSPYAAIIAGITALWGPAHGGANEAVLKMLSEIGSTENIDKYIAKAKDKDDPFRLMGFGHRVYKNTDPRATAMKKNCEEILAKLGHSDNPLLTVAKKLEEIALQDEFFIERKLFSNVDFYSGIILKAMGIPEDMFTAIFALARTSGWISQWIEMVNDPAQKIGRPRQLYTGATNRNF | soluble
